The values that follow come from article PMC4944944 (2016).

In this experiment the target is F-actin prepared from muscle actin (Oryctolagus cuniculus (Rabbit), UniProt P68135). The experiment can be described thus: F-actin co-sedimentation.

B1: Flag::mCherry::CHDP-1 (protein)
chain: MSEEIKKIEEVAEQDKAPKVPTTEPPVDVPAPVTEEAPKVEEAVAEIAAPAAAEGETATAAAAAPEEKKKSGGVARRFTFNKRWGKHRDAEASTPKEPEAPKDPKEDVLGWIAQQIPQAVHKANYQVIDWVQKTAIPEEGERKTIPGKDQATTRNQFIGFFKDGDVLAKLANALEPGAVEVAAAEENADAAAQKEVQKKNIDAFGAWAQKTLGTEAAPVTNEDLLEKGKAGYTAVFQTLWQLGVQAKEKFDKEGFNVDTIVQLANSVVKSGLLTTILGFFRRNRQAAAAVEEPKDETAAAEGAGEAKEEGATGEVADTADEPVAVKQETSAPAAVAAN
For B1, the binding result is “no binding”.
